Measurements from patent US20170275359A1 (Genentech, published 2017).
Where a chain is given by its changes, count along the chain named.

B1: anti-EphrinB2 monoclonal antibody clone 31.19 (antibody, V domains shown)
VH: EVQLVESGGGLVQPGGSLRLSCAASGFTITGSWIHWVRQAPGKGLEWVAVIYPNNGATDYADSVKGRFTISADTSKNTAYLQMNSLRAEDTAVYYCARTSAWAQLGAMDYWGQGTLVT
VL: DIQMTQSPSSLSASVGDRVTITCRASQDVSTAVAWYQQKPGKAPKLLIYSASFLYSGVPSRFSGSGSGTDFTLTISSLQPEDFATYYCQQSYTTPPTFGQGTKVEIKR
notes: Synthetic phage antibody on the humanized 4D5 framework; also called YW31.19; 31.19 antibody
B2: anti-EphrinB2 monoclonal antibody clone 31.19.1D8 (antibody, V domains shown)
VH: B1 VH
VL: DIQMTQSPSSLSASVGDRVTITCRASQDVDSSLAWYQQKPGKAPKLLIYAASNLESGVPSRFSGSGSGTDFTLTISSLQPEDFATYYCQQSDDNPFTFGQGTKVEIKR
notes: also called YW31.19.1D8; 31.19.1D8 antibody
B3: anti-EphrinB2 monoclonal antibody clone 31.19.2D3 (antibody, V domains shown)
VH: B1 VH with I29V, T30S, G31S, S32G, Y52F, P53H, N55K, A57G
VL: B1 VL with Q89E, S91T, Y92D, T93S
notes: also called YW31.19.2D3; 31.19.2D3 antibody

target: T1, human EphrinB2-His (human, UniProt P52799 28-229, limits assumed); assay: SPR BIAcore-3000, antibody coupled to CM5 chip (~500 RU), EphrinB2-His injected, 25 C
T1 construct: Soluble His-tagged protein; also called His-tagged human EphrinB2; hEphrinB2; not shown: His tag
Method: (§1) To determine the binding affinity of mouse anti-ephrinB2 Mabs, surface plasmon resonance (SRP) measurement with a BIAcore™-3000 was used (BIAcore, Inc., Piscataway, N.J.). Briefly, carboxymethylated dextran biosensor chips (CMS, BIAcore Inc.) were activated with N-ethyl-N′- (3-dimethylaminopropyl)-carbodiimide hydrochloride (EDC) and N-hydroxysuccinimide (NHS) according to the supplier's instructions. Anti-EphrinB2 antibody was diluted with 10 mM sodium acetate, pH 4.8, into 5 ug/ml before injection at a flow rate of 5 ul/minute to achieve approximately 500 response units (RU) of coupled antibody. Next, 1M ethanolamine was injected to block unreacted groups. For kinetics measurements, two-fold serial dilutions of either human or murine EphrinB2-His molecules (0.7 nM to 500 nM) were injected in PBS with 0.05% Tween 20 at 25° C. at a flow rate of 25 ul/min. Association rates (kₒₙ) and dissociation rates (koff) were calculated using a simple one-to-one Langmuir binding model (BlAcore Evaluation Software version 3.2). The equilibrium dissociation constant (Kd) was calculated as the ratio koff/kₒₙ. “NA” signifies that the measurement was not performed.

T1 sequence (P52799 28-229 limits assumed): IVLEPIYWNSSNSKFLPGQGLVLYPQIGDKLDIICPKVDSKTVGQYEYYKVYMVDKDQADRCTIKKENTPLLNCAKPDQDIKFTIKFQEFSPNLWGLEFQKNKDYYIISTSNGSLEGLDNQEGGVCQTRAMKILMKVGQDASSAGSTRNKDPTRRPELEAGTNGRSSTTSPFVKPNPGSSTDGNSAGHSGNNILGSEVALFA

In order of falling Kd:
1. B1  5.2 nM
2. B3  0.08 nM
3. B2  0.07 nM

target: T2, murine EphrinB2-His (murine, UniProt P52800 29-232, limits assumed); assay: as above
T2 construct: Soluble His-tagged protein; also called His-tagged murine EphrinB2; murine antigen; not shown: His tag
Method: as §1

T2 sequence (P52800 29-232 limits assumed): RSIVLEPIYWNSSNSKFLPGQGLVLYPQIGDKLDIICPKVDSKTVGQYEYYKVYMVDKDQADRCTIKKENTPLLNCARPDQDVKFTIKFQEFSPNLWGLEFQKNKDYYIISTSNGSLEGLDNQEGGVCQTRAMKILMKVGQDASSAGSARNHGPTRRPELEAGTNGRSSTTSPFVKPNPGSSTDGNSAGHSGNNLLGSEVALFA

In order of falling Kd:
1. B1  0.23 nM
2. B2  0.017 nM
3. B3  0.015 nM
